The assay concerns the target T1, human DLL4 (purchased from Acro, DL4-H5227) (human, UniProt Q9NR61 27-524).
T1 construct: Bought; also called hDLL4
Nature of the assay: ELISA, plate-coated protein 1 µg/ml. How it is done: The chimeric antibodies obtained in Example 6 were evaluated for their binding abilities to human DLL1 (purchased from Acro, DL1-H52H8) and DLL4 (purchased from Acro, DL4-H5227) proteins using the ELISA method. The ELISA detection method involved diluting DLL1 and DLL4 proteins with PBS to a final concentration of 1 μg/ml and coating them onto 384-well ELISA plates (purchased from Corning, 3700) at 4° C. overnight. The next day, the supernatant in the plate wells was discarded, and the wells were blocked with 80 μl of 3% milk (dissolved in PBS) for 2 hours, followed by washing three times with 80 μl of PBST (0.1% Tween20). […] After washing with 80 μl of PBST (0.1% Tween20) for five times, 25 μl of HRP-labeled goat anti-human secondary antibody (Jackson, 1:10000) was added to each well and incubated at room temperature for 1 hour, discard the supernatant, and the wells were then washed seven times with 80 μl of PBST (0.1% Tween20). After adding 25 μl of TMB chromogen solution for 10 minutes, the reaction was terminated with 2M HCl, and the absorbance value at 450 nm was measured with a Microplate reader (purchased from Biotek, Elx808). […] To assess the cross-reactivity of the antibodies with mouse and monkey DLL3, mouse DLL3-expressing plasmid pCMV3-mDLL3 (purchased from Beijing Yiqiao, MG58052-UT) and monkey DLL3-expressing plasmid pCMV3-rheDLL3 (purchased from Beijing Yiqiao, CG90919-UT) were used to construct overexpressing cell lines. The construction of overexpressing cells was as described in Examples 2-3. The binding abilities of the chimeric antibodies to these cells were determined by flow cytometry to assess the cross-reactivity of the antibodies with different species.
(An ELISA detects its analyte on a solid surface through an enzyme-linked reagent.)

T1 sequence (Q9NR61 27-524 limits assumed): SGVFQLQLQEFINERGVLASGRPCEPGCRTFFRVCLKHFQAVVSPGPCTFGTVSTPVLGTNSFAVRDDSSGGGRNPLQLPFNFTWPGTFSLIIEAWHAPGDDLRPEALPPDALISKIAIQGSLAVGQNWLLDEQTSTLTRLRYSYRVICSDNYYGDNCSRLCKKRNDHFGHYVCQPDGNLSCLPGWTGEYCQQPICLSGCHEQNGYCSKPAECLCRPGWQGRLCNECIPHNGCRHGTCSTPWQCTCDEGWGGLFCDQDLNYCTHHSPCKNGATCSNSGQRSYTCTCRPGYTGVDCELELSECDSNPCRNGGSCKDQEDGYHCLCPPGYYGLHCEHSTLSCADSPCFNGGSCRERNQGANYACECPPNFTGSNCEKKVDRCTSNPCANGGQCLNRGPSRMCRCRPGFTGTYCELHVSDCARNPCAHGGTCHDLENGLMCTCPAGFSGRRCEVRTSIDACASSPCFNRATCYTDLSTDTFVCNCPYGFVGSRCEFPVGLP

B1: ch23G2 (antibody, human IgG1, kappa, V domains shown)
VH: QVQLQQSGPELVRPGVSVKISCKGSGYTFTDYAIHWVKQSRAKSPEWIGIVSTDSGKTSFNQKFKGKATMTVDKSSTTAYMELVRLTSEDSAIYYCARNPYYDYDGYAMDYWGQGTSVTVSS
VL: DIQMTQSSSYLSVSLGGRVTIICKASDHINNWLAWYQQKPGNAPRLIISGATSLETGVPSRFSGSGSGKDYTLSITSLQTEDVATYYCQQYWSIPYTFGGGTKLEIKR
notes: Chimeric: murine variable regions on human IgG1 heavy and kappa light constant regions; also called chimeric antibody 23G2
B1: the binding result was “no binding (tested: up to 20 µg/ml)”.

B2: ch10B1 (antibody, human IgG1, kappa, V domains shown)
VH: DVKLVESGGGLVKPGGSLKLSCAASGFTFSNYTISWVRQTPEKRLEWVATFSSGGSYTYYSDSVKGRFTISRDNAKNTLYLQMSSLKSEDTAMYYCSRDRRSDGYYHLYAMDYWGQGTSVTVSS
VL: DIQMTQTTSSLSASLGDRVTISCRASQDISHYLNWYQQKPDGTVKLLIYYTSRLHSGVPSRFSGSGSGTAYSLTISNLEQEDIATYFCQQGYTLPLTFGAGTKLELKR
notes: Chimeric: murine variable regions on human IgG1 heavy and kappa light constant regions; also called chimeric antibody 10B1
In the case of B2, the binding result was “no binding (tested: up to 20 µg/ml)”.
